Consider two molecules from PMC4509546, “Structural Characterization of the Chaetomium thermophilum TREX-2 Complex and its Interaction with the mRNA Nuclear Export Factor Mex67:Mtr2” (Structure(London, England:1993), 2015).

The Kd is a measure of binding affinity in units of concentration. Read a low Kd as tighter binding. In general, koff refers to the rate constant with which the complex falls apart. A high value points to a short-lived complex. As a reminder, the kon is the rate constant with which the complex forms. High values mean faster complex formation, low ones slower complex formation.

The target of assay [1] is GST-tagged ctMlp1^(1797-1960) (Chaetomium thermophilum). In words: SPR; GST-tagged ligands captured by anti-GST antibody on CM5 chip; ctMex67:Mtr2 injected at 0.11-10 μM for 120 s, dissociation 600 s; BIAcore T200, 30 μl/min, 25°C, 20 mM Na-HEPES pH 7.5, 400 mM NaCl, 2 mM MgCl2, 5% glycerol, 0.01% NP-40; double exponential fits.
In assay [2] the target is GST-tagged ctSac3N^(1-210) (Chaetomium thermophilum) (UniProt G0SGL4). Described as above.
The target of assay [3] is GST-tagged ctNup145^(213-567) (Chaetomium thermophilum). Described as above.
Assay [4] addresses T1, C. thermophilum TREX-2 CID region complex (ctSac3^CID:ctSus1:ctCdc31) (Chaetomium thermophilum, UniProt G0SGL4 1086-1170; G0S6Y1 1-168; G0SAR7 1-177).
T1 construct: as m1; Sus1, Chaetomium thermophilum, locus CTHT_0027270; as m2; as m3; Used here for the SPR of 'the ctSac3 CID region' with Sac3N; also called ctSac3 CID region; CID region of TREX-2; source: E. coli, co-expressed, purified (GSH, TEV cleavage, size-exclusion chromatography); copies: 1 + 1 + 1
T1 sequence 1: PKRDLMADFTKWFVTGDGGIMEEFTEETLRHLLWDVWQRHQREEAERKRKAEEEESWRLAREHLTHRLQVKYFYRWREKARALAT
T1 sequence 2: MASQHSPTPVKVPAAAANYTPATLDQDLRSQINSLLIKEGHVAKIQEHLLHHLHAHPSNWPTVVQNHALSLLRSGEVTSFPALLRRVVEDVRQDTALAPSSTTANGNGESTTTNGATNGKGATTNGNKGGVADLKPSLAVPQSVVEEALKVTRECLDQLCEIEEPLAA
T1 sequence 3: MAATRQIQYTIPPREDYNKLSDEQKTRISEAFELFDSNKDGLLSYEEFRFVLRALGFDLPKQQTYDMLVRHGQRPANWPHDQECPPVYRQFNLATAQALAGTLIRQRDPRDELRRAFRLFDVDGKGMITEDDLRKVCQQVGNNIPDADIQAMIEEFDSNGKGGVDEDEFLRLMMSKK
In words: SPR; ctSac3 CID region with the Sac3N FG region; who was immobilised is not told in the text (Figure S2); general SPR conditions: BIAcore T200, 25°C, 20 mM Na-HEPES pH 7.5, 400 mM NaCl, 2 mM MgCl2, 5% glycerol, 0.01% NP-40. To be noted: both partners purified. (In general: SPR reads the build-up and loss of mass on a sensor chip optically.)

Chain of GST-tagged ctMlp1^(1797-1960) (Chaetomium thermophilum) (G0SA56 1797-1960): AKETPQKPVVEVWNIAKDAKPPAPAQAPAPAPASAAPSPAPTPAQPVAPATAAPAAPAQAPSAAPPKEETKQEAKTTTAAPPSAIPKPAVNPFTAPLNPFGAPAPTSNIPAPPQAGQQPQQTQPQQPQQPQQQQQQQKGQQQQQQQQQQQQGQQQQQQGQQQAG

In assay [1], ctMex67:Mtr2 complex had a KD1 of 309 nM, a KD2 of 419 nM, a koff1 of 0.071 s⁻¹ and a koff2 of 0.0088 s⁻¹. In assay [1], this molecule showed a kon1 of 230000 M⁻¹ s⁻¹ and a kon2 of 21000 M⁻¹ s⁻¹. Moreover, in assay [2], the KD1 is 39 nM, the KD2 stood at 148 nM, the koff1 worked out at 0.073 s⁻¹ and the koff2 is 0.0049 s⁻¹. In addition, in assay [2], the kon1 turned out to be 1.9e+06 M⁻¹ s⁻¹ and the kon2 worked out at 33000 M⁻¹ s⁻¹. In addition, in assay [3], the KD1 came out at 238 nM, the KD2 came out at 264 nM, the koff1 was 0.071 s⁻¹ and the koff2 stood at 0.0074 s⁻¹. In assay [3], this molecule had a kon1 of 300000 M⁻¹ s⁻¹ and a kon2 of 28000 M⁻¹ s⁻¹.

B1: GST-tagged ctSac3N^(1-210) (domain or fragment, Chaetomium thermophilum, UniProt G0SGL4 1-210, looked up)
chain: MMAPANNPFGAPPAQVNNPFASPAPSNQGSSVFGAPAQSTFGAPSSNNPFGASSAKPSGAPAANPFGAPIKNPFGASAQNAQNKPFGAPTAGNGSSLAAANPFGAASGQTSAFGSTPAGSAPQSKGSSRQPSPAGRQNQSGRQQANLVGAPQGPSGKKRTPSPFDTRQRTQAPSKRAQASEESDSDAMSGRKSKGKGFGGLKSQPPAANK
notes: also called GST-Sac3N; GST-Sac3; source: E. coli (general method), captured on an anti-GST antibody-coated CM5 chip
In assay [4], B1 had a Kd of 2200 nM, a koff of 0.00052 s⁻¹ and a kon of 235 M⁻¹ s⁻¹.
